{"source": "patent US20230233607A1", "about": "(University of California, published 2023)", "binders": {"B1": {"name": "CRY2PHR-VPR (other)", "chain": "MKMDKKTIVWFRRDLRIEDNPALAAAAHEGSVFPVFIWCPEEEGQFYPGRASRWWMKQSLAHLSQSLKALGSDLTLIKTHNTISAILDCIRVTGATKVVFNHLYDPVSLVRDHTVKEKLVERGISVQSYNGDLLYEPWEIYCEKGKPFTSFNSYWKKCLDMSIESVMLPPPWRLMPITAAAEAIWACSIEELGLENEAEKPSNALLTRAWSPGWSNADKLLNEFIEKQLIDYAKNSKKVVGNSTSLLSPYLHFGEISVRHVFQCARMKQIIWARDKNSEGEESADLFLRGIGLREYSRYICFNFPFTHEQSLLSHLRFFPWDADVDKFKAWRQGRTGYPLVDAGMRELWATGWMHNRIRVIVSSFAVKFLLLPWKWGMKYFWDTLLDADLECDILGWQYISGSIPDGHELDRLDNPALQGAKYDPEGEYIRQWLPELARLPTEWIHHPWDAPLTVLKASGVELGTNYAKPIVDIDTARELLAKAISRTREAQIMIGAAPASPKKKRKVEASSPGIRRLDALISTSLYKKAGYKEASGSGRADALDDFDLDMLGSDALDDFDLDMLGSDALDDFDLDMLGSDALDDFDLDMLINSRSSGSPKKKRKVGSQYLPDTDDRHRIEEKRKRTYETFKSIMKKSPFSGPTDPRPPPRRIAVPSRSSASVPKPAPQPYPFTSSLSTINYDEFPTMVFPSGQISQASALAPAPPQVLPQAPAPAPAPAMVSALAQAPAPVPVLAPGPPQAVAPPAPKPTQAGEGTLSEALLQLQFDDEDLGALLGNSTDPAVFTDLASVDNSEFQQLLNQGIPVAPHTTEPMLMEYPEAITRLVTGAQRPPDPAPAPLGAPGLPNGLLSGDEDFSSIADMDFSALLGSGSGSRDSREGMFLPKPEAGSAISDVFEGREVCQPKRIRPFHPPGSPWANRPLPASLAPTPTGPVHEPVGSLTPAPVPQPLDPAPAVTPEASHLLEDPDEETSQAVKALREMADTVIPQKEEAAICGQMDLSHPPPRGHLDELTTTLESMTEDLNLDSPLTPELNEILDTFLNDECLLHAMHISTGLSIFDTSLF"}}, "key": {"[1]": {"biological_target": "T1, LexA-CIB1-biLINuS", "T1 chain": "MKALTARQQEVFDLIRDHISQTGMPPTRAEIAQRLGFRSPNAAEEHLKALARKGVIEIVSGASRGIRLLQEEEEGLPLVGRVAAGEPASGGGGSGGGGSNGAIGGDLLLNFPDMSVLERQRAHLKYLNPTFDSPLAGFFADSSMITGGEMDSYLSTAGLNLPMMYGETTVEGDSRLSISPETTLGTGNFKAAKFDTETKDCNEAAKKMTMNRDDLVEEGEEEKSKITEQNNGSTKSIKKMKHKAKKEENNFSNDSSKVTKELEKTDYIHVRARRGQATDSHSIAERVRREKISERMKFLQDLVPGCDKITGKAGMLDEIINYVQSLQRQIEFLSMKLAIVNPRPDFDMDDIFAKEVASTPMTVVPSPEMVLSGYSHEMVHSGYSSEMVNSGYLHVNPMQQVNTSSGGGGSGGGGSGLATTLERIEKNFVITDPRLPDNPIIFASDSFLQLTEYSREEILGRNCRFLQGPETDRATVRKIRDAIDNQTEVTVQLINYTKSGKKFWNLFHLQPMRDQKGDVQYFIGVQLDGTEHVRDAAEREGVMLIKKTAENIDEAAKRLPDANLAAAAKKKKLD", "experiment": "cell-based or functional assay"}, "[2]": {"biological_target": "LexA-CIB1 (No biLINuS)", "experiment": "cell-based or functional assay"}}}
{"binder": "B1", "values": [{"measurement": "increase of Fluc signal in the light-stimulated group comparing to the dark group (Jurkat cells)", "setting": "[1]", "value": "> 1000", "unit": "fold"}, {"measurement": "induction of Fluc activity normalized by Rluc upon light stimulation compared to the dark control (HEK 293T)", "setting": "[1]", "value": 133, "unit": "fold"}, {"measurement": "mean cellular fluorescence intensity of mNeonGreen reporter, dark group, compared to the non-transfected cells (HEK 293T)", "setting": "[1]", "value": 1.7, "unit": "fold"}, {"measurement": "mean cellular fluorescence intensity of mNeonGreen reporter, light group, compared to the non-transfected cells (HEK 293T)", "setting": "[1]", "value": 61, "unit": "fold"}, {"measurement": "induction of Fluc activity normalized by Rluc upon light stimulation compared to the dark control (HEK 293T)", "setting": "[2]", "value": 68, "unit": "fold"}]}
